In paper PMC11096383:

Molecular target: G12D (M3D-GPR183/ICL3 F93^1.57V), FLAG-epitope-tagged (human)
Sequence (chain, as listed by the source G12D): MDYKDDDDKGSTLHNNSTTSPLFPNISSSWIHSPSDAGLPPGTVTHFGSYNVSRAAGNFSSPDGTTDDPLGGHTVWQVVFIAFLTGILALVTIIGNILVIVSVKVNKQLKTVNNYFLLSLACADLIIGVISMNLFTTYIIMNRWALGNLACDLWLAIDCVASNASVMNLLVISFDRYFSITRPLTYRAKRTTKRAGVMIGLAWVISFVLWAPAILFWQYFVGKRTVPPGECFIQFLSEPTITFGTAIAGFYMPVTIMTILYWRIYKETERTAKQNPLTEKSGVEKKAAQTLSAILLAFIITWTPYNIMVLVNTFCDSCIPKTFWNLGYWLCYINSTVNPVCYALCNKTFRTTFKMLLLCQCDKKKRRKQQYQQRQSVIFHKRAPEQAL

TGFα shedding assay (AP-TGFα release on CNO, concentration-response) in ∆Gq/∆G12 HEK293 cells; relative intrinsic activity (RAi) of Gα (q-12C) against Gα (q-13C): 4.6 fold
B1: Gα_(q-12C) (protein)
chain: MTLESIMACCLSEEAKEARRINDEIERQLRRDKRDARRELKLLLLGTGESGKSTFIKQMRIIHGSGYSDEDKRGFTKLVYQNIFTAMQAMIRAMDTLKIPYKYEHNKAHAQLVREVDVEKVSAFENPYVDAIKSLWNDPGIQECYDRRREYQLSDSTKYYLNDLDRVADPAYLPTQQDVLRVRVPTTGIIEYPFDLQSVIFRMVDVGGQRSERRKWIHCFENVTSIMFLVALSEYDQVLVESDNENRMEESKALFRTIITYPWFQNSSVILFLNKKDLLEEKIMYSHLVDYFPEYDGPQRDAQAAREFILKMFVDLNPDSDKIIYSHFTCATDTENVRFVFHAVKDTILQENLKDIMLQ
